Measurements: publication PMC7916480, “Functional and Structural Characterization of Nucleic Acid Ligands That Bind to Activated Coagulation Factor XIII”

T1: FXIIIa (activated coagulation factor XIII) (human, UniProt P00488 39-732)
T1 sequence: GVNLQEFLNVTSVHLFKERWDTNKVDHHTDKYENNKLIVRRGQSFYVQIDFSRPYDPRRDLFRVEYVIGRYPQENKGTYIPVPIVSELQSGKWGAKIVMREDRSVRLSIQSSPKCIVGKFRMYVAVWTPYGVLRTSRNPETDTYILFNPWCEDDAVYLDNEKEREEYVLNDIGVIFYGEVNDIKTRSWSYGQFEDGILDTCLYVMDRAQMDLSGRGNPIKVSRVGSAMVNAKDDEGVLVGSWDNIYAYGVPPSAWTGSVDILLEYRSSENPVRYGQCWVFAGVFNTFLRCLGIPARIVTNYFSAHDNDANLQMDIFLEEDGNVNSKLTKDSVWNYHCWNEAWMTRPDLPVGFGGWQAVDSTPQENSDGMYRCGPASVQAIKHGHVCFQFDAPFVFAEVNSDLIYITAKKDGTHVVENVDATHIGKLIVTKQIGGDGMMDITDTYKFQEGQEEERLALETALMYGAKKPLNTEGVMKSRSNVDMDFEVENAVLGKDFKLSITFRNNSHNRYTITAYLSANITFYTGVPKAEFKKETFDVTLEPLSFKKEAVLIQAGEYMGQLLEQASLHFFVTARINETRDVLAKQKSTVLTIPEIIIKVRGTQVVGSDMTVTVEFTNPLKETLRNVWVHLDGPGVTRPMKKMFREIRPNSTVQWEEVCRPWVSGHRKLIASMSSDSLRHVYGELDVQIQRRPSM


How the values were obtained:
[1] = molecular target: activated coagulation factor XIII (FXIIIa), recombinant human (human) (UniProt P00488)
[2] = molecular target: T1, FXIIIa (activated coagulation factor …); assay: BLI; BLI (BLItz, SAX sensors, 3'-biotinylated aptamer 1 µM) in binding buffer, 2200 rpm; buffer composition, pH and temperature not in material; plate capture 30 min; fibrinogen competition 30 min at RT; conditions: protein: recombinant; chain copies: 2; label: 3'-biotin (BLI, capture, fibrinogen assay)
[3] = molecular target: T1, FXIIIa (activated coagulation factor …); assay: competition; competition with immobilized fibrinogen, 25 nM FXIIIa; BLI (BLItz, SAX sensors, 3'-biotinylated aptamer 1 µM) in binding buffer, 2200 rpm; buffer composition, pH and temperature not in material; plate capture 30 min; fibrinogen competition 30 min at RT; conditions: protein: recombinant; chain copies: 2; label: 3'-biotin (BLI, capture, fibrinogen assay)
[4] = molecular target: T1, FXIIIa (activated coagulation factor …); assay: competition; competition with immobilized fibrinogen; not affected; BLI (BLItz, SAX sensors, 3'-biotinylated aptamer 1 µM) in binding buffer, 2200 rpm; buffer composition, pH and temperature not in material; plate capture 30 min; fibrinogen competition 30 min at RT; conditions: protein: recombinant; chain copies: 2; label: biotin (capture)
[5] = molecular target: T1, FXIIIa (activated coagulation factor …); assay: pull-down (aptamer-coated plate, activity read-out); 30 nM FXIIIa; BLI (BLItz, SAX sensors, 3'-biotinylated aptamer 1 µM) in binding buffer, 2200 rpm; buffer composition, pH and temperature not in material; plate capture 30 min; fibrinogen competition 30 min at RT; conditions: protein: recombinant; chain copies: 2; label: 3'-biotin (BLI, capture, fibrinogen assay)

Row | Molecule | inhibition of FXIIIa isopeptidase activity (fluorogenic peptide substrate, 12.8 nM FXIIIa) by tridegin, up to 12 µM [1] | Kd [2] | IC50 [3] | binding result [4] | binding signal [5]
1 | Tridegin (peptide) | 50% | – | – | – | –
2 | FA1 (ssDNA) DNA: AAGCAGTGGTAAGTAGGTTGACCATCCGCCGATTAGGCAATCACGTGGCTTAGGCACCGTATCTCTTCGAGCAATCCACAC | – | 50.4 nM | 89.5 nM | – | –
3 | FA2 (ssDNA) DNA: AAGCAGTGGTAAGTAGGTTGAGCTTTCATCACCCGTCGGTTAGACTAAGTCTCCAGCATCCTCTCTTCGAGCAATCCACAC | – | 79.1 nM | 39.3 nM | – | –
4 | TACTGTCACGAGGATATAGCACATTAGTTCAGATACGATTGTTACTGTCA (ssDNA) [negative control oligonucleotide] | – | – | – | no binding | –
5 | FA12 (ssDNA) DNA: AAGCAGTGGTAAGTAGGTTGATCATCCTCTTTAAGTCATCACTTTAGTTTCTCCATCTACATCTCTTCGAGCAATCCACAC | – | 51.8 nM | 38 nM | – | 10 % captured
6 | FA8 (ssDNA) DNA: AAGCAGTGGTAAGTAGGTTGATCATCATGTTATTTTTGTTCCATCACGCCAGTTCTGGTTCTCTCTTCGAGCAATCCACAC | – | 79.1 nM | 136 nM | – | –
7 | FA6 (ssDNA) DNA: AAGCAGTGGTAAGTAGGTTGACGCTGCGGGCATCACGTAAGTTAATATATCACTCGGCTATTCTCTTCGAGCAATCCACAC | – | 93.5 nM | 57 nM | – | ~5 % captured
8 | FA3 (ssDNA) DNA: AAGCAGTGGTAAGTAGGTTGACCATCGTAGTTCGTACACCAGTCCATTCTAGGACTCACAATCTCTTCGAGCAATCCACAC | – | 92.9 nM | 66.2 nM | – | ~5 % captured
